The values below come from US12208130B2, “Treatment of women affected with polycystic ovary syndrome” (INSTITUT NATIONAL DE LA SANTE ET DE LA RECHERCHE MEDICALE …, priority 2017, dated 2025).

Where a SMILES comes first, the peptide text is derived from it. [ ]: non-standard residue; d: D form. dPhe(4-Cl) = N[C@H](Cc1ccc(Cl)cc1)C(=O)O; d2Nal = N[C@H](Cc1ccc2ccccc2c1)C(=O)O; dCit = NC(=O)NCCC[C@@H](N)C(=O)O; d3Pal = N[C@H](Cc1cccnc1)C(=O)O

The test system of the experiment is C57BL6/J (B6) dams and their female offspring. The experiment in a line: Prenatal treatment of pregnant dams: phenotype, estrous cycle, ovarian histology and fertility of female offspring. It is filed as in vivo, mouse. The protocol:
FIGS. 2A-2E-3. Prenatal AMH treatment disrupts estrous cyclicity, ovarian morphology and fertility in adult offspring. (FIG. 2A) Schematic of experimental design whereby pregnant dams were subjected to different treatments by intraperitoneal (i.p.) injections during the late gestational period (embryonic days (E) 16.5-E18.5). Pregnant dams were treated with i.p. injections of four different treatments, which are designated as the following: Control, PBS, 0.01M, pH 7.4 (n=14); Prenatal anti-Müillerian hormone-treated (PAMH), PBS containing human recombinant AMH (n=19); Prenatal AMH+Cetrorelix (PAMH+GnRH antag), PBS containing both human recombinant AMH and cetrorelix acetate (n=10); Cetrorelix-treated (GnRH antag), PBS containing cetrorelix acetate (n=4). (FIG. 2B) Quantitative analysis of ovarian cyclicity in adult (P60-P90) offspring mice (control, n=14; PAMH, n=19; PAMH+GnRH antag, n=10; GnRH antag, n=4). Vaginal cytology was assessed for 16 days. […] Bars from left to right in each group: Control, PAMH, PAMH+GnRH antag, GnRH antag. (FIGS. 2C-1, 2C-2, 2C-3) Representation of estrous cyclicity in one female mouse of each of the four treatments during 16 consecutive days (4-cycles). (FIGS. 2D-1, 2D-2, 2D-3) Quantitative analysis of corpora lutea, late antral follicles and atretic follicles in the ovaries of Control (n=7, age: P90) and PAMH mice (n=8, age: P90). Data are represented as mean±s.e.m (two-tailed Student's t-test; corpora lutea, t(13)=4.879, **P<0.001; late antral follicles, t(13)=4.637, **P<0.001; atretic follicles, t(13)=0.226, P=0.82). Data were combined from two independent experiments. In FIGS. 2D-1, 2D-2 and 2D-3: left bar: Control; right bar: PAMH.). (FIGS. 2E-1, 2E-2, 2E-3) Fertility tests of the adult offspring mice (P90). Bars from left to right in each FIGS. 2E-1, 2E-2 and 2E-3: Control, PAMH, PAMH+GnRH antag, GnRH antag Matings were performed for 90 days. Control females were paired with control males (n=7), PAMH females were paired with PAMH males (n=7), PAMH+GnRH antag females were paired with PAMH+GnRH antag males (n=6), and GnRH antag females were paired with GnRH antag males (n=4). […] Data are represented as mean±s.e.m. One-way ANOVA and Tukey's multiple comparison post hoc test: time to first litter, F(3,20)=14.73, ***P<0.0001; fertility index, F(3,20)=7.069, *P<0.05, **P<0.005; number of pups/litter, F(3,20)=30.71, ***P<0.0001.
FIGS. 8A-8D. Prenatal AMH treatment disrupts puberty onset and estrous cyclicity cyclicity but not body mass of the offspring. (FIGS. 8A, 8B, 8C, 8D) Parameters of pubertal onset and estrous cyclicity in female control (n=14), PAMH (n=17-19), PAMH+GnRH antag (n=10), and GnRH antag (n=4) animals. (FIG. 8A) Age of vaginal opening (VO) and (FIG. 8B) Age of first estrus were compared using a one-way ANOVA and Tukey's multiple comparison post hoc analyses, respectively: F (3, 43)=48.37, *** P<0.0001; F (3, 41)=112.6, *** P<0.0001. Bars from left to right in each FIGS. 8A, 8B: Control, PAMH, PAMH+GnRH antag, GnRH antag (FIG. 8C) Percentage (%) of completed estrous cycles over 16 days (4 cycles) was analyzed using a non-parametric Kruskal-Wallis test followed by a Dunn's multiple comparison post-hoc analysis: Kruskal-Wallis statistic=35.55, *P<0.05, **P<0.005, ***P<0.0001. Bars from left to right in each FIG. 8C: Control, PAMH, PAMH+GnRH antag, GnRH antag (FIG. 8D) Body mass (gr) was measured in female offspring at each post-natal age (P) until P60 and compared using a one-way ANOVA and Tukey's multiple comparison post hoc analyses for each age and treatment: P30, F (3, 43)=1.338, P=0.2747; P35, F (3, 43)=0.4268, P=0.7348; P40, F (3, 43)=0.4171, P=0.7416; P50, F (3, 27)=2.158, P=0.1162; P60, F (3, 27)=5.45, P=0.0046; * P<0.05, **, P<0.005. Asterisks represent significant differences (mean±s.e.m): *P<0.05, **P<0.005, ***, P<0.0001. Bars from left to right in FIG. 8D: Control, PAMH, PAMH+GnRH antag, GnRH antag. […]

The mark [1] stands for this setting: dams i.p. AMH 0.12 mg/Kg/d + cetrorelix acetate 0.5 mg/Kg E16.5-E18.5, female offspring.
The mark [2] stands for this setting: dams i.p. 0.12 mg/Kg/d E16.5-E18.5, female offspring vs control.

`CC(=O)N[C@H](Cc1ccc2ccccc2c1)C(=O)N[C@H](Cc1ccc(Cl)cc1)C(=O)N[C@H](Cc1cccnc1)C(=O)N[C@@H](CO)C(=O)N[C@@H](Cc1ccc(O)cc1)C(=O)N[C@H](CCCNC(N)=O)C(=O)N[C@@H](CC(C)C)C(=O)N[C@@H](CCCNC(=N)N)C(=O)N1CCC[C@H]1C(=O)N[C@H](C)C(N)=O` [Cetrorelix acetate, Ac-D-2Nal-D-Phe(4-Cl)-D-3Pal-Ser-Tyr-D-Cit-Leu-Arg-Pro-D-Ala-NH2] (Ac-[d2Nal][dPhe(4-Cl)][d3Pal]SY[dCit]LRP[dA]-NH2): the “estrous cyclicity and fertility” value (GnRH antagonist alone, dams i.p. 0.5 mg/Kg/d E16.5-E18.5, offspring) is “no effect”. In addition, under setting [1], the “longer ano-genital distance phenotype of PAMH offspring” value is on record as “completely rescued”; the “oligo-anovulation and subfertility (ovulatory and fertility defects) of PAMH offspring” value was “totally prevented”. Also, the “oligo-anovulation and subfertility (ovulatory and fertility defects) of PAMH offspring” value (dams i.p. AMH 0.12 mg/Kg/d + cetrorelix acetate 0.5 mg/Kg E16.5-E18.5, female offspring, listed as GnRH antagonist) was “prevented the appearance of the ovulatory and fertility defects”.

B1: proAMH: AMH proprotein (Origene Technologies, Cat # TP308397), injected prenatally 0.12 mg/Kg/d (protein, UniProt P03971 25-560, looked up)
pro-form: LRAEEPAVGTSGLIFREDLDWPPGSPQEPLCLVALGGDSNGSSSPLRVVGALSAYEQAFLGAVQRARWGPRDLATFGVCNTGDRQAALPSLRRLGAWLRDPGGQRLVVLHLEEVTWEPTPSLRFQEPPPGGAGPPELALLVLYPGPGPEVTVTRAGLPGAQSLCPSRDTRYLVLAVDRPAGAWRGSGLALTLQPRGEDSRLSTARLQALLFGDDHRCFTRMTPALLLLPRSEPAPLPAHGQLDTVPFPPPRPSAELEESPPSADPFLETLTRLVRALRVPPARASAPRLALDPDALAGFPQGLVNLSDPAALERLLDGEEPLLLLLRPTAATTGDPAPLHDPTSAPWATALARRVAAELQAAAAELRSLPGLPPATAPLLARLLALCPGGPGGLGDPLRALLLLKALQGLRVEWRGRDPRGPGRAQRSAGATAADGPCALRELSVDLRAERSVLIPETYQANNCQGVCGWPQSDRNPRYGNHVVLLLKMQVRGAALARPPCCVPTAYAGKLLISLSEERISAHHVPNMVATECGCR
modifications: pro-form
notes: AMH proprotein (Origene Technologies, Cat # TP308397), injected prenatally 0.12 mg/Kg/d
In the case of B1, the estrous cyclicity result (dams i.p. 0.12 mg/Kg/d E16.5-E18.5, adult female offspring vs control) was “disrupted estrous cyclicity”. For the same molecule, the ano-genital distance result (dams i.p. 0.12 mg/Kg/d E16.5-E18.5, female offspring P30-P60 vs control) is recorded as “significantly longer ano-genital distance”. Besides, under setting [2], the “body weight of offspring” value is reported as “no difference in body weight”, the “puberty onset (first estrus)” value was “delayed puberty onset” and the vaginal opening result is on record as “delayed vaginal opening”.
